Experimental findings from publication PMC13253070 are described below.

The target in experiment [1] is C-terminal domain of FusB (FusB-CTD), wild type (Pectobacterium carotovorum LMG2410). Description: SEC; FusB-CTD alone at varying load (0.2, 0.5, 0.8, 1.2, 2 mg); wild type and variants compared at 0.5 mg loaded; monomer and dimer species. In general terms: Size exclusion chromatography separates by hydrodynamic size, large species first.
The target is the same in experiment [2]. Briefly: ITC; 25 °C, SEC Buffer (20 mM Hepes, 140 mM NaCl, pH 8.0); typically 1.1 mM analyte injected 19 x 2 μl into 85 μM ligand in the cell; FusB-CTD constructs normally in the cell, SpFer and FusANTR-GFP constructs as injectants.
Experiment [3] concerns the target FusB-CTD D322N (Pectobacterium carotovorum LMG2410). Described as above.
In experiment [4] the target is FusB-CTD R241A (Pectobacterium carotovorum LMG2410). Described as above.
Experiment [5] deals with FusB-CTD R241K (Pectobacterium carotovorum LMG2410). The experiment is described as above.
In experiment [6] the target is C-terminal domain of FusB, R242K variant (Pectobacterium carotovorum LMG2410). Description: ITC; 25 °C, SEC Buffer (20 mM Hepes, 140 mM NaCl, pH 8.0), MicroCal iTC200; typically 1.1 mM injectant, 19 x 2 µl, into 85 µM protein in the cell; FusB-CTD constructs normally in the cell; mean of the titrations listed in Table S2. (In general: ITC needs no label: the signal is the heat of the interaction.)

Experiment [7] addresses C-terminal domain of FusB, wild type (Pectobacterium carotovorum LMG2410). Described as above.
In experiment [8] the target is C-terminal domain of FusB, D322N variant (Pectobacterium carotovorum LMG2410). The experiment is described as above.
Experiment [9] concerns the target C-terminal domain of FusB (FusB-CTD), wild type (Pectobacterium carotovorum LMG2410). Description: ITC; competition, sequential titration: SpFer injected into the cell holding FusB-CTD (wild type or D322N) pretitrated with ~2.5 M excess of FusANTR-GFP (wild type or D53A); 25 °C, SEC Buffer; apparent.
Experiment [10] has as its target C-terminal domain of FusB, D322N variant (Pectobacterium carotovorum LMG2410). Description: ITC; competition, apparent: SpFer injected into the cell holding FusB-CTD (wild type or D322N) pretitrated with ~2.5 M excess of FusANTR-GFP (wild type or D53A); 25 °C, SEC Buffer.

Where only a bound is given, the exact number is not on record here.

What is called stoichiometry N is the number of molecules, sites or subunits per partner or assembly. “C-terminal domain of FusB (FusB-CTD), wild type (domain or fragment)” came in with a stoichiometry N in experiment [1] of 2.

For “FusANTR-GFP D53A (from UniProt C6DG80 21-66) (domain or fragment)”, the figures for the Kd in experiment [2] and in [3] were 31.6 µM and 31.8 µM, respectively.

For the substance “GFP fusion construct containing the N-terminal region (residues 21-66) of FusA (FusANTR-GFP), wild type (from UniProt C6DG80 21-66) (domain or fragment)”, the Kd turned out to be 9.4 µM in [3], 38.8 µM in experiment [4] and 25.3 µM in [5].

“GFP fusion construct containing the N-terminal region (residues 21-66) of FusA (domain or fragment)”: in experiment [6], the Kd was 33 µM and the stoichiometry N was below 0.2. In [7], this substance displayed a Kd of 31.2 µM and a stoichiometry N below 0.2.

For “GFP fusion construct containing the N-terminal region (residues 21-66) of FusA, D53A variant (domain or fragment)”, the Kd in [8] worked out at 31.8 µM.

Turning to “SpFer E93A/E94A (from UniProt P00221 51-147) (natural protein)”, the Kd in [2] is 31.3 µM.

In experiment [2], SpFer F64Y (natural protein) had a Kd of 30.7 µM.

“Spinacia oleracea (spinach) ferredoxin 1 (SpFer), wild type, recombinant (from UniProt P00221 51-147) (natural protein)”: the apparent KD with ~2.5 M excess of FusANTR-GFP in [9] came out at 22.3 µM. Besides, the Kd was determined as 7.4 µM in experiment [3] and 25.5 µM in experiment [5].

On to “Spinacia oleracea (spinach) ferredoxin 1 with a C-terminal 6His-tag (from UniProt P00221 51-147) (natural protein)”, for which the Kd in experiment [7] worked out at 18.1 µM.

As to “Spinacia oleracea (spinach) ferredoxin 1, recombinant, tag-free (from UniProt P00221 51-147) (natural protein)”, the Kd is 17.7 µM in experiment [10] and 7.8 µM in experiment [7].
